{"source": "paper PMC7506551", "about": "(2020)", "binders": {"B1": {"name": "SMARCC2 (aa 325–518) (domain or fragment)", "chain": "TKSKRGHREEEQEDLTKDMDEPSPVPNVEEVTLPKTVNTKKDSESAPVKGGTMTDLDEQEDESMETTGKDEDENSTGNKGEQTKNPDLHEDNVTEQTHHIIIPSYAAWFDYNSVHAIERRALPEFFNGKNKSKTPEIYLAYRNFMIDTYRLNPQEYLTSTACRRNLAGDVCAIMRVHAFLEQWGLINYQVDAES"}}, "target": "SMARCB1 (aa 169–385) (human, UniProt Q12824 169-385)", "sequence (Q12824 169-385)": "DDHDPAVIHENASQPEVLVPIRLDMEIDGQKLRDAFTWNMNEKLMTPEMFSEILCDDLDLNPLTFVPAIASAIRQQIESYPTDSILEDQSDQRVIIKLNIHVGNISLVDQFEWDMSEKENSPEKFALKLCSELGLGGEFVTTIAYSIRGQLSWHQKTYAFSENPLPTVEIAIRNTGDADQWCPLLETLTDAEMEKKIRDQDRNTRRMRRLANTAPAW", "assay": "ITC; second site (Kd2, two-site model)"}
{"binder": "B1", "values": [{"measurement": "Kd", "value": 1.96, "unit": "nM"}]}
